The target in this assay is T1, XLF-6×His (human, UniProt Q9H9Q4 1-299).
T1 construct: XLF (NHEJ1), human, amplified from pGEX2TKP-XLF and subcloned into pHAT5; source: E. coli BL21-CodonPlus (DE3)-RIL, purified (HP His-trap, HiTrap Q HP)
As to the kind of experiment: BLI; XLF binding of XRCC4 1–164 and its mutants. The following applies: both partners purified. (Biolayer interferometry detects binding as a change in optical thickness at a sensor tip.)

T1 sequence (Q9H9Q4 whole entry): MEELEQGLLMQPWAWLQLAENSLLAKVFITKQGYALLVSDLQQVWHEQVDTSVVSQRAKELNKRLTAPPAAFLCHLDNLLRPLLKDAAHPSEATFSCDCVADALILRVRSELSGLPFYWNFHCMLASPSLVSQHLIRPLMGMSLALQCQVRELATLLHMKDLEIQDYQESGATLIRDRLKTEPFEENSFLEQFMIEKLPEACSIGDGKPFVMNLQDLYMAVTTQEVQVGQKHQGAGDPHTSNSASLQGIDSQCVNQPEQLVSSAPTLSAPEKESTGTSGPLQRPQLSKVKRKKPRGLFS

B1: 6×His-XRCC4^1–164 (C-to-A) (domain or fragment, human, UniProt Q13426 1-164, looked up)
chain: MERKISRIHLVSEPSITHFLQVSWEKTLESGFVITLTDGHSAWTGTVSESEISQEADDMAMEKGKYVGELRKALLSGAGPADVYTFNFSKESAYFFFEKNLKDVSFRLGSFNLEKVENPAEVIRELIAYALDTIAENQAKNEHLQKENERLLRDWNDVQGRFEK
modifications: 15N-labelled where it was the observed protein in NMR
notes: pET-28a vector; also called XRCC4 head domain; not shown: 6×His, N-terminal, kept
Consider B1, for which the binding result was “binds”.

For the origin of these results see paper PMC9071424, “Microarray screening reveals two non-conventional SUMO-binding modules linked to DNA repair by non-homologous end-joining” (Nucleic Acids Research, 2022).
